The record followed here is paper PMC3328385 (The Journal of Cell Biology, 2012).

Data set [1] deals with t-SNAREs: syntaxin-1A/SNAP-25B, coexpressed, reconstituted in liposomes or supported bilayers (rat | mouse, UniProt P32851;P60879). The data set can be described thus: liposome coflotation.
Data set [2] deals with the molecule itself. As to the kind of experiment: native gel or EMSA. On the technique in general: In EMSA bound probe runs differently from free probe, usually more slowly.

t-SNAREs: syntaxin-1A/SNAP-25B, coexpressed, reconstituted in liposomes or supported bilayers, sequence (P32851 whole entry, chain 1 of 2): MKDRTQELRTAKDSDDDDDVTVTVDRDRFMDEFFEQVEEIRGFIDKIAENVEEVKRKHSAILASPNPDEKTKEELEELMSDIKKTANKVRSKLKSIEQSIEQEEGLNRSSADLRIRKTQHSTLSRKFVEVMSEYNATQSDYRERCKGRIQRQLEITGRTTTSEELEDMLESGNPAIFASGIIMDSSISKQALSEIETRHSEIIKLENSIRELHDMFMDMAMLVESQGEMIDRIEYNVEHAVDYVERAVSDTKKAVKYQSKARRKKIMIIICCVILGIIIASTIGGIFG
t-SNAREs: syntaxin-1A/SNAP-25B, coexpressed, reconstituted in liposomes or supported bilayers, sequence (P60879 whole entry, chain 2 of 2): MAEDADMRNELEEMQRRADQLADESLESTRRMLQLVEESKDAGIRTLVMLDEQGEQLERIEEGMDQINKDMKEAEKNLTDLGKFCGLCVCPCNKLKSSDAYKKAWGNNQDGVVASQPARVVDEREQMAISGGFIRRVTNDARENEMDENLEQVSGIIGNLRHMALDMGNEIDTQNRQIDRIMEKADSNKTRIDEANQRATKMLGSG

B1: Munc13-4 (wild type, His6-tagged human Munc13-4) (natural protein)
chain: MATLLSHPQQRPPFLRQAIKIRRRRVRDLQDPPPQMAPEIQPPSHHFSPEQRALLYEDALYTVLHRLGHPEPNHVTEASELLRYLQEAFHVEPEEHQQTLQRVRELEKPIFCLKATVKQAKGILGKDVSGFSDPYCLLGIEQGVGVPGGSPGSRHRQKAVVRHTIPEEETHRTQVITQTLNPVWDETFILEFEDITNASFHLDMWDLDTVESVRQKLGELTDLHGLRRIFKEARKDKGQDDFLGNVVLRLQDLRCREDQWYPLEPRTETYPDRGQCHLQFQLIHKRRATSASRSQPSYTVHLHLLQQLVSHEVTQHEAGSTSWDGSLSPQAATVLFLHATQKDLSDFHQSMAQWLAYSRLYQSLEFPSSCLLHPITSIEYQWIQGRLKAEQQEELAASFSSLLTYGLSLIRRFRSVFPLSVSDSPARLQSLLRVLVQMCKMKAFGELCPNTAPLPQLVTEALQTGTTEWFHLKQQHHQPMVQGIPEAGKALLGLVQDVIGDLHQCQRTWDKIFHNTLKIHLFSMAFRELQWLVAKRVQDHTTVVGDVVSPEMGESLFQLYISLKELCQLRMSSSERDGVLALDNFHRWFQPAIPSWLQKTYNEALARVQRAVQMDELVPLGELTKHSTSAVDLSTCFAQISHTARQLDWPDPEEAFMITVKFVEDTCRLALVYCSLIKARARELSSGQKDQGQAANMLCVVVNDMEQLRLVIGKLPAQLAWEALEQRVGAVLEQGQLQNTLHAQLQSALAGLGHEIRTGVRTLAEQLEVGIAKHIQKLVGVRESVLPEDAILPLMKFLEVELCYMNTNLVQENFSSLLTLLWTHTLTVLVEAAASQRSSSLASNRLKIALQNLEICFHAEGCGLPPKALHTATFQALQRDLELQAASSRELIRKYFCSRIQQQAETTSEELGAVTVKASYRASEQKLRVELLSASSLLPLDSNGSSDPFVQLTLEPRHEFPELAARETQKHKKDLHPLFDETFEFLVPAEPCRKAGACLLLTVLDYDTLGADDLEGEAFLPLREVPGLSGSEEPGEVPQTRLPLTYPAPNGDPILQLLEGRKGDREAQVFVRLRRHRAKQASQHALRPAP
Regarding B1, the “fold increase in binding with Ca2+ against no Ca2+” value in data set [1] amounted to 2.5 fold.

B2: C2B* Munc13-4 (D941N/D947N) (natural protein)
chain: MATLLSHPQQRPPFLRQAIKIRRRRVRDLQDPPPQMAPEIQPPSHHFSPEQRALLYEDALYTVLHRLGHPEPNHVTEASELLRYLQEAFHVEPEEHQQTLQRVRELEKPIFCLKATVKQAKGILGKDVSGFSDPYCLLGIEQGVGVPGGSPGSRHRQKAVVRHTIPEEETHRTQVITQTLNPVWDETFILEFEDITNASFHLDMWDLDTVESVRQKLGELTDLHGLRRIFKEARKDKGQDDFLGNVVLRLQDLRCREDQWYPLEPRTETYPDRGQCHLQFQLIHKRRATSASRSQPSYTVHLHLLQQLVSHEVTQHEAGSTSWDGSLSPQAATVLFLHATQKDLSDFHQSMAQWLAYSRLYQSLEFPSSCLLHPITSIEYQWIQGRLKAEQQEELAASFSSLLTYGLSLIRRFRSVFPLSVSDSPARLQSLLRVLVQMCKMKAFGELCPNTAPLPQLVTEALQTGTTEWFHLKQQHHQPMVQGIPEAGKALLGLVQDVIGDLHQCQRTWDKIFHNTLKIHLFSMAFRELQWLVAKRVQDHTTVVGDVVSPEMGESLFQLYISLKELCQLRMSSSERDGVLALDNFHRWFQPAIPSWLQKTYNEALARVQRAVQMDELVPLGELTKHSTSAVDLSTCFAQISHTARQLDWPDPEEAFMITVKFVEDTCRLALVYCSLIKARARELSSGQKDQGQAANMLCVVVNDMEQLRLVIGKLPAQLAWEALEQRVGAVLEQGQLQNTLHAQLQSALAGLGHEIRTGVRTLAEQLEVGIAKHIQKLVGVRESVLPEDAILPLMKFLEVELCYMNTNLVQENFSSLLTLLWTHTLTVLVEAAASQRSSSLASNRLKIALQNLEICFHAEGCGLPPKALHTATFQALQRDLELQAASSRELIRKYFCSRIQQQAETTSEELGAVTVKASYRASEQKLRVELLSASSLLPLNSNGSSNPFVQLTLEPRHEFPELAARETQKHKKDLHPLFDETFEFLVPAEPCRKAGACLLLTVLDYDTLGADDLEGEAFLPLREVPGLSGSEEPGEVPQTRLPLTYPAPNGDPILQLLEGRKGDREAQVFVRLRRHRAKQASQHALRPAP
As for B2, the binding result in data set [1] and in data set [2] was “binds” in each case.

B3: C2A*B* Munc13-4 (D127N/D133N/D941N/D947N) (natural protein)
chain: MATLLSHPQQRPPFLRQAIKIRRRRVRDLQDPPPQMAPEIQPPSHHFSPEQRALLYEDALYTVLHRLGHPEPNHVTEASELLRYLQEAFHVEPEEHQQTLQRVRELEKPIFCLKATVKQAKGILGKNVSGFSNPYCLLGIEQGVGVPGGSPGSRHRQKAVVRHTIPEEETHRTQVITQTLNPVWDETFILEFEDITNASFHLDMWDLDTVESVRQKLGELTDLHGLRRIFKEARKDKGQDDFLGNVVLRLQDLRCREDQWYPLEPRTETYPDRGQCHLQFQLIHKRRATSASRSQPSYTVHLHLLQQLVSHEVTQHEAGSTSWDGSLSPQAATVLFLHATQKDLSDFHQSMAQWLAYSRLYQSLEFPSSCLLHPITSIEYQWIQGRLKAEQQEELAASFSSLLTYGLSLIRRFRSVFPLSVSDSPARLQSLLRVLVQMCKMKAFGELCPNTAPLPQLVTEALQTGTTEWFHLKQQHHQPMVQGIPEAGKALLGLVQDVIGDLHQCQRTWDKIFHNTLKIHLFSMAFRELQWLVAKRVQDHTTVVGDVVSPEMGESLFQLYISLKELCQLRMSSSERDGVLALDNFHRWFQPAIPSWLQKTYNEALARVQRAVQMDELVPLGELTKHSTSAVDLSTCFAQISHTARQLDWPDPEEAFMITVKFVEDTCRLALVYCSLIKARARELSSGQKDQGQAANMLCVVVNDMEQLRLVIGKLPAQLAWEALEQRVGAVLEQGQLQNTLHAQLQSALAGLGHEIRTGVRTLAEQLEVGIAKHIQKLVGVRESVLPEDAILPLMKFLEVELCYMNTNLVQENFSSLLTLLWTHTLTVLVEAAASQRSSSLASNRLKIALQNLEICFHAEGCGLPPKALHTATFQALQRDLELQAASSRELIRKYFCSRIQQQAETTSEELGAVTVKASYRASEQKLRVELLSASSLLPLNSNGSSNPFVQLTLEPRHEFPELAARETQKHKKDLHPLFDETFEFLVPAEPCRKAGACLLLTVLDYDTLGADDLEGEAFLPLREVPGLSGSEEPGEVPQTRLPLTYPAPNGDPILQLLEGRKGDREAQVFVRLRRHRAKQASQHALRPAP
In the case of B3, the binding result in data set [1] and in data set [2] was “binds” each time.

B4: C2A* Munc13-4 (D127N/D133N) (natural protein)
chain: MATLLSHPQQRPPFLRQAIKIRRRRVRDLQDPPPQMAPEIQPPSHHFSPEQRALLYEDALYTVLHRLGHPEPNHVTEASELLRYLQEAFHVEPEEHQQTLQRVRELEKPIFCLKATVKQAKGILGKNVSGFSNPYCLLGIEQGVGVPGGSPGSRHRQKAVVRHTIPEEETHRTQVITQTLNPVWDETFILEFEDITNASFHLDMWDLDTVESVRQKLGELTDLHGLRRIFKEARKDKGQDDFLGNVVLRLQDLRCREDQWYPLEPRTETYPDRGQCHLQFQLIHKRRATSASRSQPSYTVHLHLLQQLVSHEVTQHEAGSTSWDGSLSPQAATVLFLHATQKDLSDFHQSMAQWLAYSRLYQSLEFPSSCLLHPITSIEYQWIQGRLKAEQQEELAASFSSLLTYGLSLIRRFRSVFPLSVSDSPARLQSLLRVLVQMCKMKAFGELCPNTAPLPQLVTEALQTGTTEWFHLKQQHHQPMVQGIPEAGKALLGLVQDVIGDLHQCQRTWDKIFHNTLKIHLFSMAFRELQWLVAKRVQDHTTVVGDVVSPEMGESLFQLYISLKELCQLRMSSSERDGVLALDNFHRWFQPAIPSWLQKTYNEALARVQRAVQMDELVPLGELTKHSTSAVDLSTCFAQISHTARQLDWPDPEEAFMITVKFVEDTCRLALVYCSLIKARARELSSGQKDQGQAANMLCVVVNDMEQLRLVIGKLPAQLAWEALEQRVGAVLEQGQLQNTLHAQLQSALAGLGHEIRTGVRTLAEQLEVGIAKHIQKLVGVRESVLPEDAILPLMKFLEVELCYMNTNLVQENFSSLLTLLWTHTLTVLVEAAASQRSSSLASNRLKIALQNLEICFHAEGCGLPPKALHTATFQALQRDLELQAASSRELIRKYFCSRIQQQAETTSEELGAVTVKASYRASEQKLRVELLSASSLLPLDSNGSSDPFVQLTLEPRHEFPELAARETQKHKKDLHPLFDETFEFLVPAEPCRKAGACLLLTVLDYDTLGADDLEGEAFLPLREVPGLSGSEEPGEVPQTRLPLTYPAPNGDPILQLLEGRKGDREAQVFVRLRRHRAKQASQHALRPAP
For the molecule B4, the binding result in data set [1] and in data set [2] was “binds” each time.
